Data taken from a protein production outcome set (Wang et al. 2014).

Assay: label from the status in PepcDB records
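Note: failed if final PepcDB status was selected cloned or expressed and not failed if soluble or beyond.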

Sequence	protein production
MNFELSSPFSPTGDQPEAIAALSDGIKSGVPFQTLLGVTGSGKTFTIANVIKEVRKPTLILSHNKTLAAQLYSEFKAFFPNNAVEYFVSYYDYYQPEAYLPTTDTYIEKDLQINDEIDKLRLRATASLLSGRKDVIVVSSVSCLYGMADPTAFAEKVVHLEKGMRIDRDKLLRRFVDALYVNNKIEFNRGCFRVNGDTVDIFPAIETFDGAAYRIEFWDDEVDRISSFDPQTGQEIDEQDELNIYPTNLFVTTQERINTAIGQIDVDLGTQVNFLREIGKPYEAKRLYERVTFDLEMIRELGHCSGIENYSRYFDGRQAGERPFCLLDYFPKDFLLVVDESHVTIPQIRAMYGGDYSRKKNLVDYGFRLPAAMDNRPLTFDEFESLTPLAIYVSATPADYELEKSEGIVVDQVIRPTGLLDPVIEVRPTLNQIDDLMEEITQRAAVDERVLVTTLTKRMAEELTAYLTRMGIRCNYIHSDVDTLERIQIMDDLRKGLFDVLIGVNLLREGLDLPEVSLVAILDADKEGFLRSHRSLTQTAGRAARNVNGKVIFYADKITDSMRLTMDETARRREKQLAYNEKHGITPKQVIKNSVSLVAEKQQPVTGEPYAYVEPEPSLVADPVVQYMNRKQLEKAIERTKKQMMEAAKKLDFIEAAQFRDELVKLEDLLVTKKD	failed
MSLKNSSRSAVDPFIVMDVMEAARRAEEAGRRIIHMEVGQPGTGAPRGAVEALAKSLETDALGYTVALGLPALRQRIARLYGEWYGVDLDPGRVVITPGSSGGFLLAFTALFDSGDRVGIGAPGYPSYRQILRALGLVPVDLPTAPENRLQPVPADFAGLDLAGLMVASPANPTGTMLDHAAMGALIEAAQAQGASFISDEIYHGIEYEAKAVTALELTDECYVINSFSKYFSMTGWRVGWMVVPEDQVRVVERIAQNMFICAPHASQVAALAALDCDAELQANLDVYKANRKLMLERLPKAGFTRIAPPDGAFYVYADVSDLTDDSRAFAAEILEKAGVAVTPGLDFDPERGAGTLRFSYARATADIEEGLDRLEAFMQARGEGHHHHHH	not failed
MSKVALFAGGDLSYISRDFDYFVGIDRGSLFLLENGLPLNMAVGDFDSVSQKAFTDIKEKAELFITAHPEKNDTDTELALKEVFARFPEAEVTIFGAFGGRMDHLLSNIFLPSDPGIAPFMAQIALRDQQNMITYRPAGQHLIHQEEGMTYVAFMAEGEADLTITGAKFELTQDNFFKKKIYSSNAFIHQPITVSLPSGYLIIIQSKDWSLEHHHHHH	not failed
MTDWQQALDRHVGVGVRTTRDLIRLIQPEDWDKRPISGKRSVYEVAVHLAVLLEADLRIATGATADEMAQFYAVPVLPEQLVDRLDQSWQYYQDRLMADFSTETTYWGVTDSTTGWLLEAAVHLYHHRSQLLDYLNLLGYDIKLDLFE	not failed
MKTVPAMLGTPRLFREFFILHLGLWSILCEKATKRNDEECEVQLNIKRNSKHSAWTGELFKIECPVKYCVHRPNVTWCKHNGTIWVPLEVGPQLYTSWEENRSVPVFVLHFKPIHLSDNGSYSCSTNFNSQVINSHSVTIHVRERTQNSSEHPLITVSDIPDATNASGPSTMEERPGRTWLLYTLLPLGALLLLLACVCLLCFLKRIQGKEKKPSDLAGRDTNLVDIPASSRTNHQALPSGTGIYDNDPWSSMQDESELTISLQSERNNQGIVYASLNHCVIGRNPRQENNMQEAPTEYASICVRS	not failed
MEQLDAIRRLNVAIFDDAHIIETFERDDLLMLLARSGGTDVGFKLGYRLNEAAFYSAKGGVHPAHRRNGIARALLYDMLDVVAGRGYERFVYDTFPNKHPGMTVLGLDEGFEVIRAGYSAKYQDYRLRFAWTFDAA	failed
MPFPSLPSPLARALTERNYAEPTPVQQAVLDAVPERDLLVSAQTGSGKTVAFGLAIAGTLLGEDETLPPPGAPLALVIAPTRELALQVQRELTWLYAQTGARIVPCVGGMDPRREARALEAGVHIVVGTPGRLRDHMERGRLVTEGLRAVILDEADEMLDMGFREDLEFILASTPKDRRTLLFSATLPKAIVALAESYQRDALRLAVAGETRGHADIVYRAVRVMPREVEHAVVNILRYVDAPVAIVFCNTRDGVRHLQASLTERGFSAVALSGELGQGERNAALQALRDGRARVCVATDVAARGIDLPGLDLVIHADLPHDAEVMQHRSGRTGRAGRKGTSVVLVPPAKRRRAEQMFAIAKVSPDWSGPPNADEIRILDRERMMSDPLLAEPETEEDREWEREWAEALMERCPPERLAAAFARLYRSRIPVPEEVSDPAYETSRRPDSRSGVPVGASRVGDDEPAAWFRLNLGRRDRAEPRRLLPMLTRRGQIGRGDIGSIRIFDNETTFEVRASAADDFAASFARRGPADVRVERMQGDGPAAAKAPKSPRAQRHRREATKTGRGG	failed
MDTDNNLTFVDFYYRWLEITKLDIINDTSYKRYITAIKAFKDCFGNKLISDIDSLSYQKFLKDYGRGHFLNNGQLRPRTSNTVSKMNNCLKQAFESAVEQGYIKKNLEHHHHHH	failed
MPEMADVMQTQAGDAGAFRHFDLSRVPTPCFVVDEVAIERNLKILRDISDRSGAHVLSALKAFSMFTLAPLVRQYLGGTCASGIYEARLGREEYGGEVATFCAGYKEQDIDEILSLSNHIIFNSPAQKDRFLSRAQAAGVQVGLRINPEHSEGEIAKYDPCAPCSRLGTPVSLLTPETLKGVDGLHMHTLCEQGFEPLLRTWAAVEPKLAPYLPGLKWLNFGGGHHITRADYDRDALIDFLKSLRARHGLDVYLEPGEAVALDAGILVGEILDLPSNGMDLAITDISATCHMPDVIEAPYRPALMDEADSGHTYRLGGPSCLAGDVIGDYTWDQPLTIGQRFAFLDQAHYSMVKTNTFNGVPLPTIALWNSKTDALRIVRQFDYSDFKDRLS	not failed
MVRLIKTETVISVLMGHFIKKLLFILLFVGVLIAPANAQNEKNMYSYKKIGNKYIVSINNHTEIVKALNAFCKEKGILSGSINGIGAIGELTLRFFNPKTKAYDDKTFREQMEISNLTGNISSMNEQVYLHLHITVGRSDYSALAGHLLSAIQNGAGEFVVEDYSERISRTYNPDLGLNIYDFERLEHHHHHH	failed
MSDAQDSRVGSMFGPYHLKRLLGRGGMGEVYEAEHTVKEWTVAVKLMTAEFSKDPVFRERMKREARIAGRLQEPHVVPIHDYGEVDGQMFLEMRLVEGTDLDSVLKRFGPLTPPRAVAIITQIASALDAAHADGVMHRDVKPQNILITRDDFAYLVDFGIASATTDEKLTQLGTAVGTWKYMAPERFSNDEVTYRADIYALACVLHECLTGAPPYRADSAGTLVSSHLMGPIPQPSAIRPGIPKAFDAVVARGMAKKPEDRYASAGDLALAAHEALSDPDQDHAADILRRSQESTLPGTAAVTAQPPTMPTVTPPPIQAAPTGQPSWAPNSGPMPASGPTPTPQYYQGGGWGAPPSGGPSPWAQTPRKTNPWPFVAGAAAVVLVLVLGAIGIWIAIRPKPVQPPQPVAEERLSALLLNSSEVNAVMGSSSMQPGKPITSMDSSPVTVSLPDCQGALYTSQDPVYAGTGYTAINGLISSEPGDNYEHWVNQAVVAFPTADKARAFVQTSADKWKNCAGKTVTVTNKAKTYRWTFADVKGSPPTITVIDTQEGAEGWECQRAMSVANNVVVDVNACGYQITNQAGQIAAKIVDKVNKE	failed
MSLKISLENVGCASQIGKRKENEDRFDFAQLTDEVLYFAVYDGHGGPAAADFCHTHMEKCIMDLLPKEKNLETLLTLAFLEIDKAFSSHARLSADATLLTSGTTATVALLRDGIELVVASVGDSRAILCRKGKPMKLTIDHTPERKDEKERIKKCGGFVAWNSLGQPHVNGRLAMTRSIGDLDLKTSGVIAEPETKRIKLHHADDSFLVLTTDGINFMVNSQEICDFVNQCHDPNEAAHAVTEQAIQYGTEDNSTAVVVPFGAWGKEGHHHHHH	not failed
MIYLQNFITTTIQLNIYLILVIGLLYVIIHYYRNKGVNAFLDIYLNYIPVLTHEFGHVLFNKLAGGKAKDLVIVTSPRERKVTSQQGYAITQSKGYLGQFITTIGGYLMPPLMFLTGLVSIHYQYPSIFITIYLFIFIYYLFITSRKLSPLIVIILISSLLYLVFKQDHQWFIYDIVTLSYHFILGVLLGEILQSSWTIFRLTFQRPKPSWDGSALTKVTRVPTFIFSLVWILFNLYTVYLLIKYTIL	failed
MAGENFATPFHGHVGRGAFSDVYEPAEDTFLLLDALEAAAAELAGVEICLEVGSGSGVVSAFLASMIGPQALYMCTDINPEAAACTLETARCNKVHIQPVITDLVKGLLPRLTEKVDLLVFNPPYVVTPPQEVGSHGIEAAWAGGKNGREVMDRFFPLVPDLLSPKGLFYLVTIKENNPEEILKIMKTKGLQGTTALSRQAGQETLSVLKFTKS	failed
MAMADVTIRGAGIFGLSIAWACVLRGARVQVVDPFGPGAGSSGGLVGALAPHVPENWNAKKAFQFDSLIMAEGFWAGVEAAGGVSPGYGRTGRIQPLADERAVDLADERAENARTLWQGQAEWRVCPVDEMGSWCPPSPTGLVVHDTLSARMHPRRACAALVGALAVRGVEVLAEAPDRGQVIHATGIAGLEELNRARGRLVGTGVKGQAALLRFDAGRQAPQLFADTVHIVPHADGTLAIGSTSERDYDDPTSTDAALDTVLDRAMQAVPLLHGAEVIERWAGVRPRSRSRAPMLGAHPLYPDQFIANGGFKIGFGMAPKVAHVMAELVLEGQDNIPQDFRPEASL	failed
MAATGVDKDRPRAMTSTTYLGLLLVGIQVLGFVAAIHAVLTVRTAQGAIAWATSLVFMPYLTLLPYLVFGRSRFDAYIEARRQANREMHLAAAELDWRPWVEEALAARQVSGYKGLKALVRMTRTPTLANNRVRLLVNGEASFEAMFKAISAARQVILVQFFIVRDDALGQRLQQLLLERAANGVEVFFLYDAIGSHALPHRYVERLRQGGVQMHGFSTGSGMLNRFQVNFRNHRKVVVVDGECGFVGGHNVGVEYLGEKPPLAPWRDTHMELRGPAVACLQESFAEDWYWATHSLPPLILPPQYDSEGALCQVVASGPADAQETCSLFFVEMINAAHERVWITSPYFVPDEAVMAALRLAVLRGVDVRLLIPSRPDHRTVYAASSLYALEAIRAGVKVFRYQPGFLHQKVVLVDRDTAAVGSANLDNRSFRLNFEVMVVTVDEGFAGEVEAMLEADFAESLEFTPEDRRSVRRLQQLGMRVARLVSPIL	failed
MSRSSSPPLAPARRTRGGHACLALAMVLAGSTVPASKLIAAEVAPFTATAIRLGLALPVFLLLMRATGARWPRPGRRDACLLALQAAAGSVGYTALLIAGLRLTSAADAAVVIGTLPAVTALLAMAVLRERPPPRTLAAIALAAAGVLVLVGGRTDDAPGSLAGNLLVLGAVVCEGLFILLSKRLRAPIAPLPLSAALTAIGAVLAGAAALAEAPWHAAFGSPALAVLAYYAWLPTVAGFVLWYAGLARASASEAALFTALAPVAAVLLAALALGETVGPRQAAGIGCVLAAVLALRPGGDKQSQKENIK	failed
MVKCLSAHNKAPHVSVITPSYNSRRFIGETILSVQNQSYENWEMIIVDDCSTDQSAAKIKEIIEGDSRIRLLSLKENVGAAKARNLAIREARGRYIAFLDSDDIWLPHKLKTQLLFMEEMNIAFSYASYSLIDENGNELNREVSVPKSVDYHYLVGNTIIGCLTVMIDREKIPYVEMPSVQPEDTALWLNLLHEGHEAKGIQQVLAKYRIVANSVSSNKVRAAFRYWKLLRDQKSLNAVQSFYYFSKYAYHAYKKNKINVVGKTQLLEHHHHHH	failed
MALMTMVQALNRALDEEMAKDPRVVVLGEDVGKRGGVFLVTEGLLQKYGPDRVMDTPLSEAAIVGAALGMAAHGLRPVAEIQFADYIFPGFDQLVSQVAKLRYRSGGQFTAPLVVRMPSGGGVRGGHHHSQSPEAHFVHTAGLKVVAVSTPYDAKGLLKAAIRDEDPVVFLEPKRLYRSVKEEVPEEDYTLPIGKAALRREGKDLTLIGYGTVMPEVLQAAAELAKAGVSAEVLDLRTLMPWDYEAVMNSVAKTGRVVLVSDAPRHASFVSEVAATIAEDLLDMLLAPPIRVTGFDTPYPYAQDKLYLPTVTRILNAAKRALDY	not failed
SSRKSGIGHEASLKRKAEEKLESYRKKIHMKNQAEEKAAEQFRMRLKNKQDEMKLEGDLRRSQRACQQLDVQKNIQVPREAWYWLRLEEETEEDEEEKEQDEDEYKSEDLSVLEKLQILTSYLREEHLYCIWCGTAYEDKEDLSSNCPGPTSADHD	failed
